The record followed here is patent publication US20190364907.

In series [1] the target is recombinant An. gambiae syntaxin1A fragment.
Series [2] deals with An. gambiae syntaxin M257V mutant.
Series [3] deals with An. gambiae syntaxin Q261E T262R double mutant.
Series [4] deals with An. gambiae syntaxin T264V Q265S double mutant.
For series [5], the target named is An. gambiae syntaxin L271V mutant.
Series [6] concerns the target An. gambiae syntaxin H252N mutant.
The target in series [7] is recombinant human syntaxin1A fragment, Q16623.
recombinant human syntaxin1A fragment, Q16623, sequence (Q16623 whole entry, looked up, the tested form may be a part): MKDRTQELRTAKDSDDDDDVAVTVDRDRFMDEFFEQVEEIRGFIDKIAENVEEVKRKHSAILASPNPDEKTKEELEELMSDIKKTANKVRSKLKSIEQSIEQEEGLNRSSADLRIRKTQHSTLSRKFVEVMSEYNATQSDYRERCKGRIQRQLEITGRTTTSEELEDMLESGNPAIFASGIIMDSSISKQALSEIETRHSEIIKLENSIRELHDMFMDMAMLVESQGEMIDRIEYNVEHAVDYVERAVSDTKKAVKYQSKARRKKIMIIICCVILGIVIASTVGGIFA

B1: recombinant CMP1 LC (light chain of clostridial mosquitocidal protein 1) (protein)
chain: LQIRVFNYNDPIDGENIVELRYHNRSPVKAFQIVDGIWIIPERYNFTNDTKKVPDDRALTILEDEVFAVRENDYLTTDVNEKNSFLNNITKLFKRINSSNIGNQLLNYISTSVPYPVVSTNSIKARDYNTIKFDSIDGRRITKSANVLIYGPSMKNLLDKQTRAINGEEAKNGIGCLSDIIFSPNYLSVQTVSSSRFVEDPASSLTHELIHALHNLYGIQYPGEEKFKFGGFIDKLLGTRECIDYEEVLTYGGKDSEIIRKKIDKSLYPDDFVNKYGEMYKRIKGSNPYYPDEKKLKQSFLNRMNPFDQNGTFDTKEFKNHLMDLWFGLNESEFAKEKKILVRKHYITKQINPKYTELTNDVYTEDKGFVNGQSIDNQNFKIIDDLISKKVKL
B1: the “cleavage of recombinant SNARE protein (SDS-PAGE / Western blot)” value in series [1] is “CMP1 LC cleaves the mosquito syntaxin resulting in a band of lower molecular weight that corresponds to cleavage of C-terminus of syntaxin”; in series [7], “CMP1 LC was not able to cleave the recombinant human syntaxin1A”. Further, the “cleavage of syntaxin mutant (Western blot)” value is recorded as “Syntaxin mutants were cleaved with less efficiency than non-mutated syntaxin” in series [2]; “Syntaxin mutants were cleaved with less efficiency than non-mutated syntaxin” in series [3]; “Syntaxin mutants were cleaved with less efficiency than non-mutated syntaxin” in series [4]; “the L271V mutant completely abolished cleavage” in series [5]; “Syntaxin mutants were cleaved with less efficiency than non-mutated syntaxin” in series [6].

B2: catalytically inactive CMP1 LC E209Q mutant (protein)
chain: LQIRVFNYNDPIDGENIVELRYHNRSPVKAFQIVDGIWIIPERYNFTNDTKKVPDDRALTILEDEVFAVRENDYLTTDVNEKNSFLNNITKLFKRINSSNIGNQLLNYISTSVPYPVVSTNSIKARDYNTIKFDSIDGRRITKSANVLIYGPSMKNLLDKQTRAINGEEAKNGIGCLSDIIFSPNYLSVQTVSSSRFVEDPASSLTHQLIHALHNLYGIQYPGEEKFKFGGFIDKLLGTRECIDYEEVLTYGGKDSEIIRKKIDKSLYPDDFVNKYGEMYKRIKGSNPYYPDEKKLKQSFLNRMNPFDQNGTFDTKEFKNHLMDLWFGLNESEFAKEKKILVRKHYITKQINPKYTELTNDVYTEDKGFVNGQSIDNQNFKIIDDLISKKVKL
In the case of B2, in series [1], the “cleavage of recombinant SNARE protein (SDS-PAGE / Western blot)” value was “no cleavage was observed by the catalytically inactive CMP1 LC E209Q mutant”.
